Data reported in article PMC6042084.

Biological target: T1, LPE1 (mature, without transit peptide) (Arabidopsis thaliana, UniProt Q9SNB7 69-665)
T1 sequence: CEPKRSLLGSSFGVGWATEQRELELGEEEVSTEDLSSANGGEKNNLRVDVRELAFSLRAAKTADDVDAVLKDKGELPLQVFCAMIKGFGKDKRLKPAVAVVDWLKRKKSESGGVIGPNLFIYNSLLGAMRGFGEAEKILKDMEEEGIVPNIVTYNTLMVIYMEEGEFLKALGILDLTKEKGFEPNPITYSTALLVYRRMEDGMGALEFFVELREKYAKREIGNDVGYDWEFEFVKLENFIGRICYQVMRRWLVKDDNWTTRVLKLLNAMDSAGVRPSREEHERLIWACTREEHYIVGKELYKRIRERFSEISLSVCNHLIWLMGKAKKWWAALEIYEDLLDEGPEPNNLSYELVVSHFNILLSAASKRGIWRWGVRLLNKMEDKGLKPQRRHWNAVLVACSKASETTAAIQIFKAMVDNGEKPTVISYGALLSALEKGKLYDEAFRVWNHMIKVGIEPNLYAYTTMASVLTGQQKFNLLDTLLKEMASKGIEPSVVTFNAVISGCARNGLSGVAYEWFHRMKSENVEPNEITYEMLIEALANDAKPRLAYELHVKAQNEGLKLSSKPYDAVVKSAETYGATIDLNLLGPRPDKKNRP
Assay: EMSA

B1: psbA 5' UTR probe (full length, first 82 nt) (ssRNA)
RNA: UUCAUAACAAGCUCUCAAUUAUCUACUUAGAGAAUUUGUGCGCUUGGAGUCCCUGAUUAUUAAAUAAACCAAGGAUUUUACC
  binding result: binds
